Experiments:
human proinsulin (human) [1] = molecular target: human proinsulin (human) (UniProt P01308); assay: sandwich immunoassay, two-step, against C-peptide calibration; proinsulin 400 ng/ml; 9101 on particles, labeled antibody 9103
human C-peptide (human) [2] = assay: ELISA on immobilized C-peptide; labeled antibody 10 ug/ml, free C-peptide 1.0 ug/ml
human C-peptide (human) [3] = assay: ELISA on immobilized C-peptide; labeled antibody 1.0 ug/ml, free C-peptide 0 ug/ml
human C-peptide (human) [4] = assay: ELISA on immobilized C-peptide; labeled antibody 0.1 ug/ml, free C-peptide 1.0 ug/ml
human C-peptide (human) [5] = assay: ELISA on immobilized C-peptide; labeled antibody 10 ug/ml, free C-peptide 0 ug/ml (reference)
human proinsulin (human) [6] = molecular target: human proinsulin (human) (UniProt P01308); assay: sandwich immunoassay, one-step, against C-peptide calibration; proinsulin 50 ng/ml; 9101 on particles, labeled antibody CPT-3-F11
human C-peptide (human) [7] = assay: ELISA on immobilized C-peptide; labeled antibody 1.0 ug/ml, free C-peptide 1.0 ug/ml
human C-peptide (human) [8] = assay: sandwich immunoassay, one-step; 9101 on particles, labeled antibody CPT-3F-11
human C-peptide (human) [9] = assay: ELISA on immobilized C-peptide; labeled antibody 0.1 ug/ml, free C-peptide 0 ug/ml (reference)
human C-peptide (human) [10] = assay: ELISA on immobilized C-peptide; labeled antibody 0.1 ug/ml, free C-peptide 10 ug/ml
human C-peptide (human) [11] = assay: sandwich immunoassay, two-step; 9101 on particles, labeled antibody 9103
human proinsulin (human) [12] = molecular target: human proinsulin (human) (UniProt P01308); assay: sandwich immunoassay, two-step, against C-peptide calibration; proinsulin 200 ng/ml; 9101 on particles, labeled antibody CPT-3-F11
[13] = molecular target: modified C-peptide (human C-peptide having Arg-Arg bound to its N-terminal and Lys-Arg bound to its C-terminal) (human); assay: sandwich immunoassay, two-step, against C-peptide calibration; modified C-peptide 5 ng/ml; 9101 on particles, labeled antibody 9103
Sequence of modified C-peptide (human C-peptide having Arg-Arg bound to its N-terminal and Lys-Arg bound to its C-terminal) (human) (peptide, as listed by the source): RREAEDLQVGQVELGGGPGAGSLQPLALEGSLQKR

human proinsulin (human) [14] = molecular target: human proinsulin (human) (UniProt P01308); assay: sandwich immunoassay, one-step, against C-peptide calibration; proinsulin 50 ng/ml; 9101 on particles, labeled antibody 9103
human C-peptide (human) [15] = assay: sandwich immunoassay, two-step; 9101 on particles, labeled antibody CPT-3F-11
human C-peptide (human) [16] = assay: ELISA on immobilized C-peptide; labeled antibody 1.0 ug/ml, free C-peptide 0 ug/ml (reference)
human C-peptide (human) [17] = assay: ELISA on immobilized C-peptide; labeled antibody 0.0 ug/ml (blank), free C-peptide 0.1 ug/ml
[18] = molecular target: modified C-peptide (human C-peptide having Arg-Arg bound to its N-terminal and Lys-Arg bound to its C-terminal) (human); assay: sandwich immunoassay, one-step, against C-peptide calibration; modified C-peptide 5 ng/ml; 9101 on particles, labeled antibody CPT-3F-11
human proinsulin (human) [19] = molecular target: human proinsulin (human) (UniProt P01308); assay: sandwich immunoassay, one-step, against C-peptide calibration; proinsulin 200 ng/ml; 9101 on particles, labeled antibody CPT-3-F11
human proinsulin (human) [20] = molecular target: human proinsulin (human) (UniProt P01308); assay: sandwich immunoassay, one-step, against C-peptide calibration; proinsulin 400 ng/ml; 9101 on particles, labeled antibody CPT-3-F11
human C-peptide (human) [21] = assay: ELISA on immobilized C-peptide; labeled antibody 1.0 ug/ml, free C-peptide 0.1 ug/ml
human C-peptide (human) [22] = assay: ELISA on immobilized C-peptide; labeled antibody 10 ug/ml, free C-peptide 0 ug/ml
[23] = molecular target: modified C-peptide (human C-peptide having Arg-Arg bound to its N-terminal and Lys-Arg bound to its C-terminal) (human); assay: sandwich immunoassay, two-step, against C-peptide calibration; modified C-peptide 5 ng/ml; 9101 on particles, labeled antibody CPT-3F-11
human C-peptide (human) [24] = assay: ELISA on immobilized C-peptide; labeled antibody 10 ug/ml, free C-peptide 0.1 ug/ml
human C-peptide (human) [25] = assay: ELISA on immobilized C-peptide; labeled antibody 0.1 ug/ml, free C-peptide 0.1 ug/ml
human proinsulin (human) [26] = molecular target: human proinsulin (human) (UniProt P01308); assay: sandwich immunoassay, two-step, against C-peptide calibration; proinsulin 200 ng/ml; 9101 on particles, labeled antibody 9103
human proinsulin (human) [27] = molecular target: human proinsulin (human) (UniProt P01308); assay: sandwich immunoassay, two-step, against C-peptide calibration; proinsulin 50 ng/ml; 9101 on particles, labeled antibody 9103
human C-peptide (human) [28] = assay: ELISA on immobilized C-peptide; labeled antibody 0.0 ug/ml (blank), free C-peptide 0 ug/ml
human C-peptide (human) [29] = assay: sandwich immunoassay, one-step; 9101 on particles, labeled antibody 9103
human C-peptide (human) [30] = assay: ELISA on immobilized C-peptide; labeled antibody 1.0 ug/ml, free C-peptide 10 ug/ml
human proinsulin (human) [31] = molecular target: human proinsulin (human) (UniProt P01308); assay: sandwich immunoassay, two-step, against C-peptide calibration; proinsulin 400 ng/ml; 9101 on particles, labeled antibody CPT-3-F11
human proinsulin (human) [32] = molecular target: human proinsulin (human) (UniProt P01308); assay: sandwich immunoassay, two-step, against C-peptide calibration; proinsulin 50 ng/ml; 9101 on particles, labeled antibody CPT-3-F11
human C-peptide (human) [33] = assay: ELISA on immobilized C-peptide; labeled antibody 0.0 ug/ml (blank), free C-peptide 10 ug/ml
[34] = molecular target: modified C-peptide (human C-peptide having Arg-Arg bound to its N-terminal and Lys-Arg bound to its C-terminal) (human); assay: sandwich immunoassay, one-step, against C-peptide calibration; modified C-peptide 5 ng/ml; 9101 on particles, labeled antibody 9103
human proinsulin (human) [35] = molecular target: human proinsulin (human) (UniProt P01308); assay: sandwich immunoassay, one-step, against C-peptide calibration; proinsulin 400 ng/ml; 9101 on particles, labeled antibody 9103
human C-peptide (human) [36] = assay: ELISA on immobilized C-peptide; labeled antibody 0.1 ug/ml, free C-peptide 0 ug/ml
human proinsulin (human) [37] = molecular target: human proinsulin (human) (UniProt P01308); assay: sandwich immunoassay, one-step, against C-peptide calibration; proinsulin 200 ng/ml; 9101 on particles, labeled antibody 9103
human C-peptide (human) [38] = assay: ELISA on immobilized C-peptide; labeled antibody 10 ug/ml, free C-peptide 10 ug/ml
human C-peptide (human) [39] = assay: ELISA on immobilized C-peptide; labeled antibody 0.0 ug/ml (blank), free C-peptide 1.0 ug/ml

Sequence of human C-peptide (human) (peptide, as listed by the source): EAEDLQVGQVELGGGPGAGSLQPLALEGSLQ
Sequence of UniProt P01308 (P01308 25-110): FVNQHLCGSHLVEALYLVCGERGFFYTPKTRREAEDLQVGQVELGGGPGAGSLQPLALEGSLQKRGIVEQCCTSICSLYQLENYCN

anti-human C-peptide monoclonal antibody 9101 (Medix Biochemica)
Cross-reactivity (%) to Human Proinsulin (human proinsulin (human) [1]): 8.4%
Absorbance (absorbance at 405 nm) (human C-peptide (human) [2]): 0.051
Binding Ratio (human C-peptide (human) [2]): 2.6%
Absorbance (absorbance at 405 nm) (human C-peptide (human) [3]): 1.69
Absorbance (absorbance at 405 nm) (human C-peptide (human) [4]): 0.013
Binding Ratio (human C-peptide (human) [4]): 1%
Binding Ratio (human C-peptide (human) [5]): 100%
Cross-reactivity (%) to Human Proinsulin (human proinsulin (human) [6]): 19.6%
Absorbance (absorbance at 405 nm) (human C-peptide (human) [7]): 0.042
Binding Ratio (human C-peptide (human) [7]): 2.5%
2S/N value (human C-peptide (human) [8]): 0.008 ng/mL
Binding Ratio (human C-peptide (human) [9]): 100%
Absorbance (absorbance at 405 nm) (human C-peptide (human) [10]): 0
Binding Ratio (human C-peptide (human) [10]): 0%
2S/N value (human C-peptide (human) [11]): 0.11 ng/mL
Cross-reactivity (%) to Human Proinsulin (human proinsulin (human) [12]): 11.8%
Cross-reactivity (%) to Modified C-peptide [13]: < 0.7%
Cross-reactivity (%) to Human Proinsulin (human proinsulin (human) [14]): 19.7%
2S/N value (human C-peptide (human) [15]): 0.009 ng/mL
Binding Ratio (human C-peptide (human) [16]): 100%
Absorbance (absorbance at 405 nm) (human C-peptide (human) [17]): 0
Binding Ratio (human C-peptide (human) [17]): 0%
Cross-reactivity (%) to Modified C-peptide [18]: 9.3%
Cross-reactivity (%) to Human Proinsulin (human proinsulin (human) [19]): 17.8%
Cross-reactivity (%) to Human Proinsulin (human proinsulin (human) [20]): 11.7%
Absorbance (absorbance at 405 nm) (human C-peptide (human) [21]): 0.298
Binding Ratio (human C-peptide (human) [21]): 17.6%
Absorbance (absorbance at 405 nm) (human C-peptide (human) [22]): 1.98
Cross-reactivity (%) to Modified C-peptide [23]: 1.7%
Absorbance (absorbance at 405 nm) (human C-peptide (human) [24]): 0.331
Binding Ratio (human C-peptide (human) [24]): 17.1%
Absorbance (absorbance at 405 nm) (human C-peptide (human) [25]): 0.141
Binding Ratio (human C-peptide (human) [25]): 11.1%
Cross-reactivity (%) to Human Proinsulin (human proinsulin (human) [26]): 9.8%
Cross-reactivity (%) to Human Proinsulin (human proinsulin (human) [27]): 12.8%
Absorbance (absorbance at 405 nm) (human C-peptide (human) [28]): 0
Binding Ratio (human C-peptide (human) [28]): 0%
2S/N value (human C-peptide (human) [29]): 0.222 ng/mL
Absorbance (absorbance at 405 nm) (human C-peptide (human) [30]): 0.001
Binding Ratio (human C-peptide (human) [30]): 0%
Cross-reactivity (%) to Human Proinsulin (human proinsulin (human) [31]): 12.1%
Cross-reactivity (%) to Human Proinsulin (human proinsulin (human) [32]): 10.7%
Absorbance (absorbance at 405 nm) (human C-peptide (human) [33]): 0
Binding Ratio (human C-peptide (human) [33]): 0%
Cross-reactivity (%) to Modified C-peptide [34]: < 0.5%
Cross-reactivity (%) to Human Proinsulin (human proinsulin (human) [35]): > 15%
Absorbance (absorbance at 405 nm) (human C-peptide (human) [36]): 1.26
Cross-reactivity (%) to Human Proinsulin (human proinsulin (human) [37]): 18.1%
Absorbance (absorbance at 405 nm) (human C-peptide (human) [38]): 0.001
Binding Ratio (human C-peptide (human) [38]): 0.1%
Absorbance (absorbance at 405 nm) (human C-peptide (human) [39]): 0
Binding Ratio (human C-peptide (human) [39]): 0%

From patent US6534281
